From the supplement of paper PMC10567573
± gives the standard deviation.

Test: protein stability index of a GFP-peptide fusion (GPS, HEK-293T) (PSI 1-6); higher = more stable
Conditions: c terminus: a fixed tail appended
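Further: 24-mer peptide tiles fused after GFP, lentivirally expressed, FACS-sorted into six equal bins by GFP/DsRed ratio, decoded by Illumina sequencing, PSI is the read-weighted mean bin number.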

| Sequence | protein stability index (treatment: DMSO) | protein stability index (treatment: MLN4924 1 uM, 8 h) |
| --- | --- | --- |
| SSLFDLSVLKLHHSLQQSEPDLRH [SERTAD1] | 3.23 ± 0.21 | 3.29 ± 0.3 |
| PYGVYKKQQKDPSEEAAVLQYASL [ATE1] | 3.62 ± 0.23 | 3.8 ± 0.5 |
| SEDRTVRVWLKRDSGQYWPSVYHA [WDFY2] | 2.27 ± 0.12 | 2.37 ± 0.21 |
| SRQYDKFLTHFILMNDVIDTSGFP [FBXO33] | 2.51 ± 0.5 | 1.97 ± 0.5 |
| DIKAEPQPLSPASSSYSVSSPRSV [ATF6] | 4.61 ± 0.14 | 4.74 ± 0.44 |
| EVLENVFRVNCYPGIDIREDLAQK [HESX1] | 2.46 ± 0.31 | 2.35 ± 0.66 |
| VDKDQPSILNSCEDPVPGMLFFLP [FBXO34] | 3.32 ± 0.39 | 3.02 ± 0.36 |
| KEAVLAMEKKSKPKNSVWKRLKSP [RIT1] | 4.23 ± 0.21 | 4.19 ± 0.27 |
| LLRHRMNWLGRPSKVLSLQDLCCR [RAB40A] | 2.62 ± 0.27 | 2.71 ± 0.35 |
| PHIEEQQKKIESYLHNHFIGEGMT [TENT5D] | 3.35 ± 0.33 | 3.59 ± 0.27 |
| DEVDDFEDFIFSHFFGDKALKKRS [PBXIP1] | 3.26 ± 0.23 | 3.29 ± 0.39 |
| GSSFSGRVFRVTFLMLAVSLTVPL [APMAP] | 3.06 ± 0.3 | 3.05 ± 0.35 |
| NRGINITIYGKTFRVVDCDQFTQV [EFHC1] | 2.24 ± 0.53 | 2.72 ± 0.51 |
| SDLGLLRLCTWLLALSPDLSLSNA [FANCE] | 3.08 ± 0.33 | 3.17 ± 0.47 |
| SRELASMNLDIVDLLKKAKFHHSD [RHOBTB3] | 3.2 ± 0.2 | 3.09 ± 0.23 |
| YRTWNVVVHDWLYSYVYQDGLRLL [SOAT2] | 3.02 ± 0.41 | 2.82 ± 0.84 |
| DEVPGSQGSQASQAPPVPGPPPGA [NR2F2] | 5.45 ± 0.23 | 5.604 ± 0.036 |
| IDAIYSVIDDAKQYVYIAVMDYLP [PLD5] | 3.55 ± 0.11 | 3.73 ± 0.42 |
| DQWTPIAAMLRGQSDVGVAVFENK [KLHL13] | 3.53 ± 0.2 | 3.42 ± 0.2 |
| LEVMEEEELANLRASQREYEELRN [RSPH3] | 5.22 ± 0.43 | 5.09 ± 0.18 |
| KPTEPSVPVQPLLPESLARSLLPS [FBF1] | 4.33 ± 0.11 | 4.43 ± 0.26 |
| YLLQFARKPVEAESVEGVVRILLE [INTS4] | 2.19 ± 0.24 | 2.27 ± 0.25 |
| HSLDLNISEKLTLLPTLYEIHSKT [RNF180] | 2.34 ± 0.26 | 2.46 ± 0.42 |

| Sequence | protein stability index (treatment: DMSO) | protein stability index (treatment: MLN4924 1 uM, 8 h) |
| --- | --- | --- |
| FPLKPMVHRKSCSTGEAGTDGDHN [ZC2HC1C] | 4.53 ± 0.18 | 4.38 ± 0.27 |
| SLGYGTNVAATGISQYEDDLPPPP [APBB1IP] | 4.86 ± 0.44 | 4.87 ± 0.42 |
| EHIKSLLIKNNSLPRKRQSLRSSS [INTS3] | 3.29 ± 0.17 | 3.38 ± 0.25 |
| KVVLSDAYAHPQQKVAVYRALQAA [TRADD] | 2.9 ± 0.41 | 3.24 ± 0.25 |
| AKAADSPTRNDLESGLGHFSLRVH | 3.19 ± 0.38 | 3.42 ± 0.48 |
| GVWHQMGTDGYMPRELASMSLVLH [KLHDC10] | 2.08 ± 0.21 | 2.06 ± 0.27 |
| SSPDLDDMKLIILANRLCLPHLVA [RHOBTB2] | 2.55 ± 0.5 | 2.44 ± 0.19 |
| AFARQAAQEPSAVPRAGPLTVNTE [FOXJ1] | 4.54 ± 0.17 | 4.49 ± 0.24 |
| ESGVDVNSQNEVNGWTCLHWACKR [ANKRD40] | 3.06 ± 0.22 | 3.31 ± 0.46 |
| EVHSLTLSPPEQAAQPMQPLPESL [PLAGL1] | 4.92 ± 0.26 | 5.02 ± 0.088 |
| PLPKRVAKVPRPPSTLLPTPEEQG [FOXJ1] | 4.97 ± 0.29 | 4.82 ± 0.34 |
| DTLFERATNSSWVVVFKALVTTHH [SNAP91] | 2.62 ± 0.55 | 2.71 ± 0.48 |
| MRFASGRPAFVRVRRGHSHLAPSE | 3.08 ± 0.22 | 3.29 ± 0.4 |
| TRYHLQQARRQQVKQYLSTTLGPK [TFE3] | 3.21 ± 0.15 | 3.29 ± 0.2 |
| DYSRPLHISTFINELDSGFRLLNL [TSN] | 2.11 ± 0.27 | 2.21 ± 0.088 |
| AIQYALNIAFSEAEGARPLRENVP [MATN2] | 2.36 ± 0.21 | 2.08 ± 0.23 |
| DVADDFENYHKLRRSSSKCIHDHH [NETO1] | 3.85 ± 0.15 | 4.15 ± 0.11 |
| VAVALRKPDGSRHQDVPSQDDSKP [AASDHPPT] | 5.15 ± 0.26 | 5 ± 0.17 |
| ESEVYSWGKGARGRLGRRDEDAGL [NEK8] | 4.67 ± 0.19 | 4.66 ± 0.37 |
| GGATFLLTAKQLIKSIVEASKGCQ [TRIM63] | 2.87 ± 0.7 | 2.86 ± 0.47 |
| TPSLLRFALASLLQSAPDVKGRVR [ZSWIM9] | 2.5 ± 0.16 | 2.53 ± 0.34 |
| GTETHGLVQVTLLDTVELATYCVR [PTPRD] | 2.39 ± 0.22 | 2.55 ± 0.51 |
| IAILLYKSKPDRKRAESDSRKSSI [PTPRD] | 1.75 ± 0.23 | 1.92 ± 0.44 |

| Sequence | protein stability index (treatment: DMSO) | protein stability index (treatment: MLN4924 1 uM, 8 h) |
| --- | --- | --- |
| AKMGATKEEREDTPIQLQELLALE [TCAP] | 5.28 ± 0.24 | 5.15 ± 0.27 |
| ESSILGTDIDLQTIDNDIVSMEIF [M1AP] | 3.86 ± 0.34 | 3.74 ± 0.35 |
| RIFAQYMVPHNLETTERMKCLYYL [PDS5B] | 2.91 ± 0.62 | 2.36 ± 0.43 |
| SHECKPEGYEFCHNRKVLTIFSAS [PPEF2] | 2.73 ± 0.38 | 2.76 ± 0.17 |
| KKCVKKFVEYCDVNNDKSISVQEL [SMOC2] | 3.57 ± 0.21 | 3.68 ± 0.49 |
| MLLELTRRGQEPLSALLQFGVTYL [BCL2L13] | 2.63 ± 0.59 | 2.4 ± 0.41 |
| RELEEYRREVERKQKGSEENLDEA [ADD1] | 5.57 ± 0.24 | 5.61 ± 0.17 |
| EQDAACGFCFFNSVAVAARHAQTI [HDAC6] | 1.99 ± 0.83 | 1.95 ± 0.21 |
| DYEAGTLSFYNVTDRSHIYTFTDT [TRIM39] | 2.58 ± 0.38 | 2.69 ± 0.28 |
| QPKKPEDEPQETAYRTQVSSCCLH [PKD2L1] | 4.88 ± 0.27 | 4.96 ± 0.05 |
| ARYTMPSSLLAPAKHLIASMLSKN [PLK2] | 2.51 ± 0.39 | 2.91 ± 0.72 |
| GVPNASVIMQVPERIVVAGNNEDV [MFF] | 4.68 ± 0.72 | 4.35 ± 0.31 |
| TESEAHYSSQLSQVQSLITNVESQ [KRT34] | 4.83 ± 0.31 | 4.78 ± 0.21 |
| EPLEPEVKYVGNMHGNEALGRELM [CPN1] | 4.63 ± 0.088 | 4.82 ± 0.18 |
| FEKLLQLTSQNIEIKLVSDVTADS [PLD5] | 2.69 ± 0.59 | 2.72 ± 0.37 |
| EDDIRPDIKDDIYDPTYKDKEGPS [SCD] | 5.46 ± 0.39 | 5.37 ± 0.34 |
| IDRMFPEMSIHLSRPNGTSAMLLV [MED27] | 2.65 ± 0.71 | 2.75 ± 0.52 |
| PLRERARKLSQGILIIRFEMPYNI [YJU2B] | 2.9 ± 0.7 | 2.62 ± 0.39 |
| LSSAEENEPSQAETAVEGDPSGVS [C18orf25] | 5.47 ± 0.24 | 5.39 ± 0.47 |
| TVEPGKLDVGATEGQDLQHISNQK [DRICH1] | 5.43 ± 0.23 | 5.4 ± 0.4 |
| DSAELEPGSQTAVKNSNRYDVEMT [FBXO34] | 5.26 ± 0.2 | 5.29 ± 0.2 |
| GVWAVIISHQQCWASTSPGTDLPL [TRIM15] | 2.75 ± 0.97 | 2.67 ± 0.18 |
| QGPPMVPPYQGGPPRPPMGMRPPV [ZNF207] | 4.31 ± 0.12 | 4.18 ± 0.081 |

| Sequence | protein stability index (treatment: DMSO) | protein stability index (treatment: MLN4924 1 uM, 8 h) |
| --- | --- | --- |
| VPSEEPQESDQTEEHESGIEQFSE [IQUB] | 5.69 ± 0.13 | 5.57 ± 0.38 |
| GEPQQDCCVKTELLGEETPMAADE [EHMT1] | 5.55 ± 0.25 | 5.53 ± 0.14 |
| RKMSLLKFLAKVNGSDPRSFPLWY [MAGEA10] | 2.38 ± 0.63 | 2.01 ± 0.22 |
| EAAKGGHTSVVCYLLDYPNNLLSA [ANKRD17] | 2.02 ± 0.57 | 2.06 ± 0.47 |
| PQQAPQDDGSQDPEVLDRESRDRP [PWWP2B] | 5.63 ± 0.29 | 5.47 ± 0.14 |
| YMAICKPLHELITMNRRVCVLMLL [OR4A15] | 2.79 ± 0.49 | 2.35 ± 0.32 |
| IIEVLSNALSKSSAPPITPECRQV [CHGB] | 2.29 ± 0.54 | 2.32 ± 0.22 |
| DDKDALVFVLIDEVESLTAARNAC [TRIP13] | 2.21 ± 0.32 | 2.38 ± 0.34 |
| LQHEERETRQKKLEVAMEEEGLAD [STK38L] | 5.59 ± 0.28 | 5.56 ± 0.11 |
| LDSEIKKNSDGMEAAGVQIQMVNE [CD207] | 5.41 ± 0.59 | 5.22 ± 0.35 |
| QIEYEYKLAQALHEMREQHDAQVR [LMNB1] | 3.83 ± 0.38 | 3.83 ± 0.34 |
| DKPVTGPRNKTENGLTPKKKIQVN [ATF6] | 4.81 ± 0.31 | 4.63 ± 0.32 |
| SAQNGLASSLPAEVHSLTLSPPEQ [PLAGL1] | 5 ± 0.15 | 5.03 ± 0.22 |
| MIVDVTPYMNPSPFTVSPNTHVSQ [CLCN6] | 2.47 ± 0.17 | 2.8 ± 0.31 |
| DTGVFAVVNSHSLSLLGKLTISAA [SLC22A15] | 2.5 ± 0.42 | 2.33 ± 0.53 |
| GNMFPTIGDVHLAPFTDEQLYMEQ [CARM1] | 3.93 ± 0.27 | 4.12 ± 0.19 |
| DYGVDPSQFSGTLMRTCERLVKEG [PPTC7] | 3.72 ± 0.42 | 3.79 ± 0.35 |
| TQQWTAICPLKERRFGAVACGVAM [GAN] | 2.83 ± 0.37 | 2.52 ± 0.55 |
| LEEEEEEEEEAEDEEVVATAGDRL [IRX6] | 5.71 ± 0.27 | 5.46 ± 0.32 |
| GTVIGVTSCIVIILIIISVIVQIK [NETO1] | 3.16 ± 0.34 | 3.02 ± 0.36 |
| PDGGGPWLEDEPGRGAQGENERVR [ZSWIM9] | 5.41 ± 0.43 | 5.5 ± 0.3 |
